Our source for the stoichiometry N values is publication doi:10.1101/2022.11.05.515292.

The target in assay [1] is T1, Upstream Binding Transcription Factor (UBF), recombinant, P17480.
T1 chain: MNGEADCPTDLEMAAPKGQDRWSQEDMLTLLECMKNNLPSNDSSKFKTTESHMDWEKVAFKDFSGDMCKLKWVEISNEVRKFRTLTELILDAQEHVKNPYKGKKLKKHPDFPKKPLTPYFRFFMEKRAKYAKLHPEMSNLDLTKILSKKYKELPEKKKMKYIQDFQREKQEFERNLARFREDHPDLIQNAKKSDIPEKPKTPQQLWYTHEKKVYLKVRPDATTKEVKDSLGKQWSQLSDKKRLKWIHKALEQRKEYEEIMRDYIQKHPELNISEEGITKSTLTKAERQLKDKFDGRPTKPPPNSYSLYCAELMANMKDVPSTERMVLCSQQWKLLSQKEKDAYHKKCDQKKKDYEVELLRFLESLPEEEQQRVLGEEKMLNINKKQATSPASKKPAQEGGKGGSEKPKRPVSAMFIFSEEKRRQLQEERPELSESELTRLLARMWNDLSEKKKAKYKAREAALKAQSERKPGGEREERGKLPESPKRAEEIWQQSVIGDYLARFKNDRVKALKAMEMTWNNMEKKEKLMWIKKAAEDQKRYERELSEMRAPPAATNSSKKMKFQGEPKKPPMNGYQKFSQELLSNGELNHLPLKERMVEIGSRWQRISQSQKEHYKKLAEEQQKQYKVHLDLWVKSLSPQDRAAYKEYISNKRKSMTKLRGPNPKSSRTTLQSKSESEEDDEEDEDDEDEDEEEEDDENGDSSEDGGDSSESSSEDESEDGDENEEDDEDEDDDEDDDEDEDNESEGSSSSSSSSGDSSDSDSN
Nature of the assay: mass photometry. Particulars: remark: other sources report otherwise.

Assay [2] has as its target T1, Upstream Binding Transcription Factor …. Nature of the assay: SDS-PAGE without sample heating, with densitometry. The conditions noted are these: remark: other sources report otherwise.

The stoichiometry N is the number of molecules, sites or subunits per partner or assembly.

B1: Upstream Binding Transcription Factor (UBF), recombinant, P17480 1-764 (natural protein)
chain: T1 chain
Consider B1, for which the stoichiometry N in assay [1] and in assay [2] was 4 each time.
